Test [1] deals with DLC1 RhoGAP (Homo sapiens) (UniProt Q96QB1). Briefly: kinetics. The note with it: cited from earlier work.
Test [2] shares this target. Briefly: ITC. The note with it: cited from earlier work.
The target in test [3] is T1, DLC1 RhoGAP domain (residues 1074-1283), His6-tagged (human, UniProt Q96QB1 1074-1283).
T1 construct: RhoGAP domain of human DLC1A, residues 1074-1283 of UniProt Q96QB1 isoform 2; Vector pET28-MHL; also called DLC1A; His6-DLC1; source: E. coli BL21(DE3) or Rosetta(DE3), purified (Ni-NTA, SEC)
T1 sequence (looked up): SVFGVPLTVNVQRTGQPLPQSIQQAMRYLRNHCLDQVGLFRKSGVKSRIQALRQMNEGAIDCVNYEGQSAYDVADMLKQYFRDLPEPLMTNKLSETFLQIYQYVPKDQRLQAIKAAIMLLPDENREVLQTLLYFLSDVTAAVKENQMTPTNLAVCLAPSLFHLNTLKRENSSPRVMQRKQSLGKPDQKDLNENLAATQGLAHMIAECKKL
Briefly: crystal structure; copurified complex of DLC1 RhoGAP with p120RasGAP SH3 at 18 mg/ml; 0.2 M magnesium nitrate, 16.5% PEG 3350, hanging drops, ambient temperature (~22 °C); 3.2 Å, four copies of the complex in the asymmetric unit. The conditions noted are these: both partners purified.

By Ki is commonly meant a dissociation constant, usually derived from enzyme kinetics or from competition with a known ligand. What is called Kd is the free concentration of one partner at which half of the binding sites on the other are occupied at equilibrium, for simple one-to-one binding.

Chain of DLC1 RhoGAP (Homo sapiens) (Q96QB1 1075-1287): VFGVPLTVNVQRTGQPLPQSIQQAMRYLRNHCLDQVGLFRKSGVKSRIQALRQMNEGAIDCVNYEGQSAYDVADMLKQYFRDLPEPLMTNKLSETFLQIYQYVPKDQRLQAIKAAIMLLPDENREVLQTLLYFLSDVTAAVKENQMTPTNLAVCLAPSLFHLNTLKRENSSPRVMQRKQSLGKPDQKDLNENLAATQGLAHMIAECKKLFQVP

p120RasGAP SH3 (from UniProt P20936): the Ki in test [1] is 600 nM. In test [2], the Kd was 600 nM.

B1: p120RasGAP SH3 domain (residues 281-341) (domain or fragment, human, UniProt P20936 281-341, looked up)
chain: RRRVRAILPYTKVPDTDEISFLKGDMFIVHNELEDGWMWVTNLRTDEQGLIVEDLVEEVGR
notes: SH3 domain of human p120RasGAP, residues 281-341 of UniProt P20936; Vector pGEX-6p1; also called SH3 WT; RASA1; source: E. coli BL21(DE3) or Rosetta(DE3), purified (glutathione Sepharose, PreScission cleavage on beads, SEC)
As to B1, the binding result in test [3] is “binds”.

The values above are taken from paper PMC9378701, “SH3 domain regulation of RhoGAP activity: Crosstalk between p120RasGAP and DLC1 RhoGAP” (Nature Communications, 2022).
